{"source": "patent US20240000838A1", "about": "(SIMCERE INNOVATION, published 2024)", "data": [{"biological_target": "T1, CD5 on human T cells (autologous and allogeneic Pan-T cells) and on the T-ALL cell line CCRF-CEM (human, UniProt P06127 25-495)", "T1 sequence (looked up)": "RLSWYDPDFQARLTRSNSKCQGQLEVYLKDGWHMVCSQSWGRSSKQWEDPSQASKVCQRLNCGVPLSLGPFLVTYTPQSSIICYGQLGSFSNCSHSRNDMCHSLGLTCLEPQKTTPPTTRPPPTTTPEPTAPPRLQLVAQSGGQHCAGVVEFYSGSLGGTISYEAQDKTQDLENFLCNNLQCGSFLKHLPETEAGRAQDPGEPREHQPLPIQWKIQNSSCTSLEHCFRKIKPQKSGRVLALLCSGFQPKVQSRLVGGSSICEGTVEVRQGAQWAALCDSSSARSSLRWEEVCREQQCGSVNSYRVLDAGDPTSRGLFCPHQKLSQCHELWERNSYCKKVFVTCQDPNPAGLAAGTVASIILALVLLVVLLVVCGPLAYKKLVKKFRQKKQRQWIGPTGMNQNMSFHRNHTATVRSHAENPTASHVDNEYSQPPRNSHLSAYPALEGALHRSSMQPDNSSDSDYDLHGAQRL", "test": "cell-based or functional assay", "units": {"elimination of CCRF-CEM cells after 18 hours (luciferase-based killing assay)": "%"}, "values": [{"binder": "CD5/CD33 Dual-CAR, construct S049 (other) DIQMTQSPSSLSASVGDRVTITCRASESVDNYGISFMNWFQQKPGKAPKLLIYAASNQGSGVPSRFSGSGSGTDFTLTISSLQPDDFATYYCQQSKEVPWTFGQGTKVEIKGGGGSGGGGSGGGGSQVQLVQSGAEVKKPGSSVKVSCKASGYTFTDYNMHWVRQAPGQGLEWIGYIYPYNGGTGYNQKFKSKATITADESTNTAYMELSSLRSEDTAVYYCARGRPAMDYWGQGTLVTVSSASTTTPAPRPPTPAPTIASQPLSLRPEACRPAAGGAVHTRGLDFACDIYIWAPLAGTCGVLLLSLVITLYCKRGRKKLLYIFKQPFMRPVQTTQEEDGCSCRFPEEEEGGCELRVKFSRSADAPAYKQGQNQLYNELNLGRREEYDVLDKRRGRDPEMGGKPRRKNPQEGLYNELQKDKMAEAYSEIGMKGERRRGKGHDGLYQGLSTATKDTYDALHMQALPPRGSGATNFSLLKQAGDVEENPGPMALPVTALLLPLALLLHAARPDIQMTQSPSSLSASVGDRVTITCRASQDINSYLSWFQQKPGKAPKTLIYRANRLESGVPSRFSGSGSGTDYTLTISSLQYEDFGIYYCQQYDESPWTFGGGTKLEIKGGGGSGGGGSGGGGSEIQLVQSGGGLVKPGGSVRISCAASGYTFTNYGMNWVRQAPGKGLEWMGWINTHTGEPTYADSFKGRFTFSLDDSKNTAYLQINSLRAEDTAVYFCTRRGYDWYFDVWGQGTTVTVSSSGTTTPAPRPPTPAPTIASQPLSLRPEACRPAAGGAVHTRGLDFACDIYIWAPLAGTCGVLLLSLVITLYCKRGRKKLLYIFKQPFMRPVQTTQEEDGCSCRFPEEEEGGCELRVKFSRSADAPAYKQGQNQLYNELNLGRREEYDVLDKRRGRDPEMGGKPRRKNPQEGLYNELQKDKMAEAYSEIGMKGERRRGKGHDGLYQGLSTATKDTYDALHMQALPPRFE", "elimination of CCRF-CEM cells after 18 hours (luciferase-based killing assay)": "~100"}, {"binder": "CD5/CD33 Dual-CAR, construct S048 (other) DIQMTQSPSSLSASVGDRVTITCRASESVDNYGISFMNWFQQKPGKAPKLLIYAASNQGSGVPSRFSGSGSGTDFTLTISSLQPDDFATYYCQQSKEVPWTFGQGTKVEIKGGGGSGGGGSGGGGSQVQLVQSGAEVKKPGSSVKVSCKASGYTFTDYNMHWVRQAPGQGLEWIGYIYPYNGGTGYNQKFKSKATITADESTNTAYMELSSLRSEDTAVYYCARGRPAMDYWGQGTLVTVSSASTTTPAPRPPTPAPTIASQPLSLRPEACRPAAGGAVHTRGLDFACDIYIWAPLAGTCGVLLLSLVITLYCKRGRKKLLYIFKQPFMRPVQTTQEEDGCSCRFPEEEEGGCELRVKFSRSADAPAYKQGQNQLYNELNLGRREEYDVLDKRRGRDPEMGGKPRRKNPQEGLYNELQKDKMAEAYSEIGMKGERRRGKGHDGLYQGLSTATKDTYDALHMQALPPRGSGATNFSLLKQAGDVEENPGPMALPVTALLLPLALLLHAARPDIKMTQSPSSMYASLGERVTITCKASQDINSYLSWFHHKPGKSPKTLIYRANRLVDGVPSRFSGSGSGQDYSLTISSLDYEDMGIYYCQQYDESPWTFGGGTKLEMKGGGGSGGGGSGGGGSNIQLVQSGPELKKPGETVKISCKASGYTFTNYGMNWVKQAPGKGLRWMGWINTHTGEPTYADDFKGRFAFSLETSASTAYLQINNLKNEDTATYFCTRRGYDWYFDVWGAGTTVTVSSSGTTTPAPRPPTPAPTIASQPLSLRPEACRPAAGGAVHTRGLDFACDIYIWAPLAGTCGVLLLSLVITLYCKRGRKKLLYIFKQPFMRPVQTTQEEDGCSCRFPEEEEGGCELRVKFSRSADAPAYKQGQNQLYNELNLGRREEYDVLDKRRGRDPEMGGKPRRKNPQEGLYNELQKDKMAEAYSEIGMKGERRRGKGHDGLYQGLSTATKDTYDALHMQALPPRFE", "elimination of CCRF-CEM cells after 18 hours (luciferase-based killing assay)": "~100"}, {"binder": "CD5/CD33 Dual-CAR, construct S043 (other) QVQLVQSGAEVKKPGSSVKVSCKASGYTFTDYNMHWVRQAPGQGLEWIGYIYPYNGGTGYNQKFKSKATITADESTNTAYMELSSLRSEDTAVYYCARGRPAMDYWGQGTLVTVSSGGGGSDIQMTQSPSSLSASVGDRVTITCRASQDINSYLSWFQQKPGKAPKTLIYRANRLESGVPSRFSGSGSGTDYTLTISSLQYEDFGIYYCQQYDESPWTFGGGTKLEIKGSTSGSGKPGSGEGSTKGEIQLVQSGGGLVKPGGSVRISCAASGYTFTNYGMNWVRQAPGKGLEWMGWINTHTGEPTYADSFKGRFTFSLDDSKNTAYLQINSLRAEDTAVYFCTRRGYDWYFDVWGQGTTVTVSSGGGGSDIQMTQSPSSLSASVGDRVTITCRASESVDNYGISFMNWFQQKPGKAPKLLIYAASNQGSGVPSRFSGSGSGTDFTLTISSLQPDDFATYYCQQSKEVPWTFGQGTKVEIKASTTTPAPRPPTPAPTIASQPLSLRPEACRPAAGGAVHTRGLDFACDIYIWAPLAGTCGVLLLSLVITLYCKRGRKKLLYIFKQPFMRPVQTTQEEDGCSCRFPEEEEGGCELRVKFSRSADAPAYKQGQNQLYNELNLGRREEYDVLDKRRGRDPEMGGKPRRKNPQEGLYNELQKDKMAEAYSEIGMKGERRRGKGHDGLYQGLSTATKDTYDALHMQALPPR", "elimination of CCRF-CEM cells after 18 hours (luciferase-based killing assay)": "~100"}]}, {"biological_target": "T2, CD33 human protein-PE (Sino Biological, 12238-HCCH_P) (human, UniProt P20138 18-259, PE label)", "T2 construct": "Bought staining reagent; also called CD33 antigen", "T2 sequence (P20138 18-259 limits assumed)": "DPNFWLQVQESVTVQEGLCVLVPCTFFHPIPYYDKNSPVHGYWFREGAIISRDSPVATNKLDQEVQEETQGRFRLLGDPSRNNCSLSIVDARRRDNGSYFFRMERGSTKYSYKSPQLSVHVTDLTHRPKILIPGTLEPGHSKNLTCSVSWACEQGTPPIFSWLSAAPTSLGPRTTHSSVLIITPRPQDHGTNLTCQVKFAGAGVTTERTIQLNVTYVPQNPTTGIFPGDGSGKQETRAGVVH", "test": "flow cytometry; CAR-T cells stained with CD33 human protein-PE", "method": "CD3 and CD5 are stained with a CD3-FITC antibody (BD Biosciences, #555339) and a CD5-APC antibody (BD Biosciences, #555355) for 30 minutes at R.T. in the dark. CAR5 surface expression is detected by staining with Human CD5 Protein, HisTag (AcroBiosystems, Cat #CD5-H52H5) for 1 hour at R.T., washed and then incubated with His-APC antibody (R&D Systems, IC050A) for 30 minutes at R.T. in the dark. CAR33 expression is stained with CD33 human protein-PE (Sino Biological, 12238-HCCH_P) for 1 hour at R.T. All the staining is performed at 1:10 dilutions. DAPI (Thermo Scientific, Cat #BV-421, 1:5000) is used to stain dead cells before running by the Attune NxT Flow Cytometer (Thermo Fisher Scientific). Data is further analyzed by either using Attune NxT flow software or FlowJo software.", "values": [{"binder": "CD33 CAR CAR33-2, construct S012 (other, Chimeric antigen receptor on T cells) QVQLVQSGAEVKKPGSSVKVSCKASGYTFTDYNMHWVRQAPGQGLEWIGYIYPYNGGTGYNQKFKSKATITADESTNTAYMELSSLRSEDTAVYYCARGRPAMDYWGQGTLVTVSSGGGGSGGGGSGGGGSDIQMTQSPSSLSASVGDRVTITCRASESVDNYGISFMNWFQQKPGKAPKLLIYAASNQGSGVPSRFSGSGSGTDFTLTISSLQPDDFATYYCQQSKEVPWTFGQGTKVEIKASTTTPAPRPPTPAPTIASQPLSLRPEACRPAAGGAVHTRGLDFACDIYIWAPLAGTCGVLLLSLVITLYCKRGRKKLLYIFKQPFMRPVQTTQEEDGCSCRFPEEEEGGCELRVKFSRSADAPAYKQGQNQLYNELNLGRREEYDVLDKRRGRDPEMGGKPRRKNPQEGLYNELQKDKMAEAYSEIGMKGERRRGKGHDGLYQGLSTATKDTYDALHMQALPPR", "binding result": "binds"}, {"binder": "CD33 CAR CAR33-4, construct S014 (other, Chimeric antigen receptor on T cells) QVQLQQPGAEVVKPGASVKMSCKASGYTFTSYYIHWIKQTPGQGLEWVGVIYPGNDDISYNQKFQGKATLTADKSSTTAYMQLSSLTSEDSAVYYCAREVRLRYFDVWGQGTTVTVSSGGGGSGGGGSGGGGSEIVLTQSPGSLAVSPGERVTMSCKSSQSVFFSSSQKNYLAWYQQIPGQSPRLLIYWASTRESGVPDRFTGSGSGTDFTLTISSVQPEDLAIYYCHQYLSSRTFGQGTKLEIKRASTTTPAPRPPTPAPTIASQPLSLRPEACRPAAGGAVHTRGLDFACDIYIWAPLAGTCGVLLLSLVITLYCKRGRKKLLYIFKQPFMRPVQTTQEEDGCSCRFPEEEEGGCELRVKFSRSADAPAYKQGQNQLYNELNLGRREEYDVLDKRRGRDPEMGGKPRRKNPQEGLYNELQKDKMAEAYSEIGMKGERRRGKGHDGLYQGLSTATKDTYDALHMQALPPR", "binding result": "binds"}, {"binder": "CD33 CAR CAR33-6, construct S016 (other, Chimeric antigen receptor on T cells) QVQLQQPGAEVVKPGASVKMSCKASGYTFTSYYIHWIKQTPGQGLEWVGVIYPGNDDISYNQKFKGKATLTADKSSTTAYMQLSSLTSEDSAVYYCAREVRLRYFDVWGAGTTVTVSSGGGGSGGGGSGGGGSNIMLTQSPSSLAVSAGEKVTMSCKSSQSVFFSSSQKNYLAWYQQIPGQSPKLLIYWASTRESGVPDRFTGSGSGTDFTLTISSVQSEDLAIYYCHQYLSSRTFGGGTKLEIKRASTTTPAPRPPTPAPTIASQPLSLRPEACRPAAGGAVHTRGLDFACDIYIWAPLAGTCGVLLLSLVITLYCKRGRKKLLYIFKQPFMRPVQTTQEEDGCSCRFPEEEEGGCELRVKFSRSADAPAYKQGQNQLYNELNLGRREEYDVLDKRRGRDPEMGGKPRRKNPQEGLYNELQKDKMAEAYSEIGMKGERRRGKGHDGLYQGLSTATKDTYDALHMQALPPR", "binding result": "binds"}, {"binder": "CD33 CAR CAR33-1, construct S011 (other, Chimeric antigen receptor on T cells) DIQMTQSPSSLSASVGDRVTITCRASESVDNYGISFMNWFQQKPGKAPKLLIYAASNQGSGVPSRFSGSGSGTDFTLTISSLQPDDFATYYCQQSKEVPWTFGQGTKVEIKGGGGSGGGGSGGGGSQVQLVQSGAEVKKPGSSVKVSCKASGYTFTDYNMHWVRQAPGQGLEWIGYIYPYNGGTGYNQKFKSKATITADESTNTAYMELSSLRSEDTAVYYCARGRPAMDYWGQGTLVTVSSASTTTPAPRPPTPAPTIASQPLSLRPEACRPAAGGAVHTRGLDFACDIYIWAPLAGTCGVLLLSLVITLYCKRGRKKLLYIFKQPFMRPVQTTQEEDGCSCRFPEEEEGGCELRVKFSRSADAPAYKQGQNQLYNELNLGRREEYDVLDKRRGRDPEMGGKPRRKNPQEGLYNELQKDKMAEAYSEIGMKGERRRGKGHDGLYQGLSTATKDTYDALHMQALPPR", "binding result": "binds"}]}]}
